The target of assay [1] is T1, Human in house BCMA (Homo sapiens, UniProt Q02223).
T1 construct: CD33 signal peptide (N); TEV site (internal); Fc (C); made in house
The experiment in a line: ProteOn analysis of CA8 chimeric and humanised constructs, human in house BCMA. Conditions: for ka / kd: Run 1, Human in house BCMA, ProteOn, 25° C.; for ka: in M-1s-1 (unit assumed); for kd: in s-1 (unit assumed); for off rate: Run 2, ProteOn, recombinant human BCMA, no affinity values obtained. In kind it is binding. The method, then: The initial screen of CA8 chimeric and humanised variants was carried out on the ProteOn XPR36 (Biorad). The method was as follows; Protein A was immobilised on a GLC chip (Biorad, Cat No: 176-5011) by primary amine coupling, CA8 variants were then captured on this surface and recombinant human BCMA (in house or commercial US Biological, B0410) materials (run 2 only)) passed over at 256, 64, 16, 4, 1 nM with a 0 nM injection (i.e. buffer alone) used to double reference the binding curves, the buffer used is the HBS-EP buffer. 50 mM NaOH was used to regenerate the capture surface. The data was fitted to the 1:1 model using the analysis software inherent to the ProteOn XPR36. Run 1 corresponds to the first screen of humanised CA8 variants (JO to J5 series) and run 2 to the second screen of humanised CA8 variants (J5 to J9 series). Both runs were carried out at 25° C.

Assay [2] has as its system Cyno in house BCMA. The experiment in a line: ProteOn analysis of CA8 chimeric and humanised constructs, cyno in house BCMA. Conditions: Run 1, Cyno in house BCMA, 25° C.; for ka: in M-1s-1 (unit assumed); for kd: in s-1 (unit assumed). In kind it is binding.

Sequence of Cyno in house BCMA (as listed by the source): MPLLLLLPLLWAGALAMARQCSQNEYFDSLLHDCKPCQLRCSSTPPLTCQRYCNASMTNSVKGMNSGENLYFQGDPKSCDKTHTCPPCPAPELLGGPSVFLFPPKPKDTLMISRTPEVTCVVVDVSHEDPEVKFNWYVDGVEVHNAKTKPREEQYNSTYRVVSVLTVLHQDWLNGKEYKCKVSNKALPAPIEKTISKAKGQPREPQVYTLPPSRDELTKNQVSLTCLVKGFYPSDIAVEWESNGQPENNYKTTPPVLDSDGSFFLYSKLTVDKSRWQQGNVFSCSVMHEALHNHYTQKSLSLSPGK
T1 sequence (Q02223 with tags, fused parts or gaps limits assumed): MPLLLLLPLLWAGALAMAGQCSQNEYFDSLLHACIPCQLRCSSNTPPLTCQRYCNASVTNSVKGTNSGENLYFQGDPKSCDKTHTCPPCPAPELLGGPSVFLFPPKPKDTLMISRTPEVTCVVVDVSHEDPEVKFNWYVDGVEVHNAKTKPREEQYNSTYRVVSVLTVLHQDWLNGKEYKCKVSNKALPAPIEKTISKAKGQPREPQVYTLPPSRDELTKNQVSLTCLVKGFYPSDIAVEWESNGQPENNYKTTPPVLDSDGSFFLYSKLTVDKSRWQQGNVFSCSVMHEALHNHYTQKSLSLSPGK

B1: CA8 humanised J5M2: humanised CA8 anti-BCMA antibody, VH J5 (SEQ ID NO:21) + VL M2 (SEQ ID NO:35) (antibody, V domains shown)
VH: QVQLVQSGAEVKKPGSSVKVSCKGSGYTFTNYWMHWVRQAPGQGLEWMGATYRGHSDTYYNQKFKGRVTITADTSTSTAYMELSSLRSEDTAVYYCTRGAIYDGYDVLDNWGQGTLVTVSS
VL: DIQLTQSPSSLSASVGDRVTITCSASQDISNYLNWYQQKPGKAPELVIYYTSNLHSGVPSRFSGSGSGTDYTLTISSLQPEDFATYYCQQYRKLPWTFGQGTKLEIKR
modifications: Humansed antibody sequence
With B1, in assay [1], the ka was 2.67E+05, the kd was determined as 3.21E−05 and the off rate result is listed as “beyond the sensitivity of the assay”. Also, in assay [2], the ka stood at 4.30E+05 and the kd was 4.70E−05.

B2: CA8 humanised J1M2: humanised CA8 anti-BCMA antibody, VH J1 (SEQ ID NO:13) + VL M2 (SEQ ID NO:35) (antibody, V domains shown)
VH: QVQLVQSGAEVKKPGSSVKVSCKASGYTFTNYWMHWVRQAPGQGLEWMGATYRGHSDTYYNQKFKGRVTITADKSTSTAYMELSSLRSEDTAVYYCARGAIYNGYDVLDNWGQGTLVTVSS
VL: DIQLTQSPSSLSASVGDRVTITCSASQDISNYLNWYQQKPGKAPELVIYYTSNLHSGVPSRFSGSGSGTDYTLTISSLQPEDFATYYCQQYRKLPWTFGQGTKLEIKR
modifications: Humansed antibody sequence
For B2, in assay [1], the ka was 2.15E+05 and the kd was 2.46E−04. Also, in assay [2], the ka was 3.19E+05 and the kd is recorded as 9.67E−05.

B3: CA8 humanised J0M1: humanised CA8 anti-BCMA antibody, VH J0 (SEQ ID NO:11) + VL M1 (SEQ ID NO:33) (antibody, V domains shown)
VH: QVQLVQSGAEVKKPGSSVKVSCKASGGTFSNYWMHWVRQAPGQGLEWMGATYRGHSDTYYNQKFKGRVTITADKSTSTAYMELSSLRSEDTAVYYCARGAIYNGYDVLDNWGQGTLVTVSS
VL: DIQMTQSPSSLSASVGDRVTITCSASQDISNYLNWYQQKPGKAPKLLIYYTSNLHSGVPSRFSGSGSGTDYTLTISSLQPEDFATYYCQQYRKLPWTFGQGTKLEIKR
modifications: Humansed antibody sequence
On to B3, for which the ka in assay [1] came out at 2.31E+05; in assay [2], 3.32E+05. Also, the kd is listed as 8.60E−05 in assay [1] and 1.67E−04 in assay [2].

B4: CA8 humanised J4M1: humanised CA8 anti-BCMA antibody, VH J4 (SEQ ID NO:19) + VL M1 (SEQ ID NO:33) (antibody, V domains shown)
VH: QVQLVQSGAEVKKPGSSVKVSCKGSGYTFTNYWMHWVRQAPGQGLEWIGATYRGHSDTYYNQKFKGRATLTADTSTSTAYMELSSLRSEDTAVYYCTRGAIYNGYDVLDNWGQGTLVTVSS
VL: DIQMTQSPSSLSASVGDRVTITCSASQDISNYLNWYQQKPGKAPKLLIYYTSNLHSGVPSRFSGSGSGTDYTLTISSLQPEDFATYYCQQYRKLPWTFGQGTKLEIKR
modifications: Humansed antibody sequence
As for B4, in assay [1], the ka amounted to 2.54E+05 and the kd turned out to be 7.04E−05. In assay [2], this molecule yielded a ka of 3.50E+05 and a kd of 7.10E−05.

B5: CA8 humanised J5M1: humanised CA8 anti-BCMA antibody, VH J5 (SEQ ID NO:21) + VL M1 (SEQ ID NO:33) (antibody, V domains shown)
VH: QVQLVQSGAEVKKPGSSVKVSCKGSGYTFTNYWMHWVRQAPGQGLEWMGATYRGHSDTYYNQKFKGRVTITADTSTSTAYMELSSLRSEDTAVYYCTRGAIYDGYDVLDNWGQGTLVTVSS
VL: DIQMTQSPSSLSASVGDRVTITCSASQDISNYLNWYQQKPGKAPKLLIYYTSNLHSGVPSRFSGSGSGTDYTLTISSLQPEDFATYYCQQYRKLPWTFGQGTKLEIKR
modifications: Humansed antibody sequence
B5: in assay [1], the ka is listed as 2.97E+05, the kd was 4.32E−05 and the off rate entry is on record as “beyond the sensitivity of the assay”. In assay [2], this molecule showed a ka of 4.81E+05 and a kd of 5.41E−05.

B6: CA8 humanised J0M2: humanised CA8 anti-BCMA antibody, VH J0 (SEQ ID NO:11) + VL M2 (SEQ ID NO:35) (antibody, V domains shown)
VH: QVQLVQSGAEVKKPGSSVKVSCKASGGTFSNYWMHWVRQAPGQGLEWMGATYRGHSDTYYNQKFKGRVTITADKSTSTAYMELSSLRSEDTAVYYCARGAIYNGYDVLDNWGQGTLVTVSS
VL: DIQLTQSPSSLSASVGDRVTITCSASQDISNYLNWYQQKPGKAPELVIYYTSNLHSGVPSRFSGSGSGTDYTLTISSLQPEDFATYYCQQYRKLPWTFGQGTKLEIKR
modifications: Humansed antibody sequence
Consider B6, for which, in assay [1], the ka was 2.25E+05 and the kd turned out to be 6.97E−05. In assay [2], this molecule yielded a ka of 3.26E+05 and a kd of 1.84E−04.

B7: CA8 humanised J3M2: humanised CA8 anti-BCMA antibody, VH J3 (SEQ ID NO:17) + VL M2 (SEQ ID NO:35) (antibody, V domains shown)
VH: QVQLVQSGAEVKKPGSSVKVSCKGSGYTFTNYWMHWVRQAPGQGLEWMGATYRGHSDTYYNQKFKGRVTITADTSTSTAYMELSSLRSEDTAVYYCTRGAIYNGYDVLDNWGQGTLVTVSS
VL: DIQLTQSPSSLSASVGDRVTITCSASQDISNYLNWYQQKPGKAPELVIYYTSNLHSGVPSRFSGSGSGTDYTLTISSLQPEDFATYYCQQYRKLPWTFGQGTKLEIKR
modifications: Humansed antibody sequence
Take B7: the figures for the ka in assay [1] and in assay [2] were 2.66E+05 and 3.69E+05, respectively. In addition, the kd amounted to 9.64E−05 in assay [1] and 5.87E−05 in assay [2].

B8: CA8 humanised J2M1: humanised CA8 anti-BCMA antibody, VH J2 (SEQ ID NO:15) + VL M1 (SEQ ID NO:33) (antibody, V domains shown)
VH: QVQLVQSGAEVKKPGSSVKVSCKASGYTFTNYWMHWVRQAPGQGLEWMGATYRGHSDTYYNQKFKGRVTITADKSTSTAYMELSSLRSEDTAVYYCTRGAIYNGYDVLDNWGQGTLVTVSS
VL: DIQMTQSPSSLSASVGDRVTITCSASQDISNYLNWYQQKPGKAPKLLIYYTSNLHSGVPSRFSGSGSGTDYTLTISSLQPEDFATYYCQQYRKLPWTFGQGTKLEIKR
modifications: Humansed antibody sequence
As to B8, the ka in assay [1] came to 2.04E+05; in assay [2], 2.96E+05. Moreover, the kd in assay [1] is on record as 1.72E−04; in assay [2], 6.46E−05.

B9: CA8 humanised J2M2: humanised CA8 anti-BCMA antibody, VH J2 (SEQ ID NO:15) + VL M2 (SEQ ID NO:35) (antibody, V domains shown)
VH: QVQLVQSGAEVKKPGSSVKVSCKASGYTFTNYWMHWVRQAPGQGLEWMGATYRGHSDTYYNQKFKGRVTITADKSTSTAYMELSSLRSEDTAVYYCTRGAIYNGYDVLDNWGQGTLVTVSS
VL: DIQLTQSPSSLSASVGDRVTITCSASQDISNYLNWYQQKPGKAPELVIYYTSNLHSGVPSRFSGSGSGTDYTLTISSLQPEDFATYYCQQYRKLPWTFGQGTKLEIKR
modifications: Humansed antibody sequence
As for B9, in assay [1], the ka was found to be 2.05E+05 and the kd is 9.87E−05. In assay [2], this molecule came in with a ka of 2.98E+05 and a kd of 3.17E−05.

B10: CA8 humanised J4M2: humanised CA8 anti-BCMA antibody, VH J4 (SEQ ID NO:19) + VL M2 (SEQ ID NO:35) (antibody, V domains shown)
VH: QVQLVQSGAEVKKPGSSVKVSCKGSGYTFTNYWMHWVRQAPGQGLEWIGATYRGHSDTYYNQKFKGRATLTADTSTSTAYMELSSLRSEDTAVYYCTRGAIYNGYDVLDNWGQGTLVTVSS
VL: DIQLTQSPSSLSASVGDRVTITCSASQDISNYLNWYQQKPGKAPELVIYYTSNLHSGVPSRFSGSGSGTDYTLTISSLQPEDFATYYCQQYRKLPWTFGQGTKLEIKR
modifications: Humansed antibody sequence
In assay [1], B10 had a ka of 2.51E+05 and a kd of 7.06E−05. Also, in assay [2], the ka is listed as 3.44E+05 and the kd stood at 6.15E−05.

B11: CA8 humanised J3M1: humanised CA8 anti-BCMA antibody, VH J3 (SEQ ID NO:17) + VL M1 (SEQ ID NO:33) (antibody, V domains shown)
VH: QVQLVQSGAEVKKPGSSVKVSCKGSGYTFTNYWMHWVRQAPGQGLEWMGATYRGHSDTYYNQKFKGRVTITADTSTSTAYMELSSLRSEDTAVYYCTRGAIYNGYDVLDNWGQGTLVTVSS
VL: DIQMTQSPSSLSASVGDRVTITCSASQDISNYLNWYQQKPGKAPKLLIYYTSNLHSGVPSRFSGSGSGTDYTLTISSLQPEDFATYYCQQYRKLPWTFGQGTKLEIKR
modifications: Humansed antibody sequence
In assay [1], B11 returned a ka of 2.85E+05 and a kd of 1.25E−04. Besides, in assay [2], the ka came out at 4.04E+05 and the kd stood at 7.93E−05.

The values above are taken from US11419945B2, “Antigen binding proteins” (Glaxo Group Limited, priority 2011, dated 2022).
